1 substance from patent US9034825B2, “Treatment of myocardial injury with humanin analogs” (Albert Einstein College of Medicine of Yeshiva University, priority 2007, dated 2015) can be followed below.

This data set concerns Sprague-Dawley rats. In words: Peripheral IGFBP-3 infusion during hyperinsulinemic clamp. It counts as in vivo, rat. How it is done:
To study the acute effects of an infusion of IGFBP-3, two groups of awake, unstressed, chronically catheterized Sprague-Dawley rats (˜300 g) were studied for 300 min (n=6 in each group) under hyperinsulinemic clamp (as previously described). From 120 min the rats received a primed continuous infusion of IGFBP-3 (0.06 mg/kg/hr) or saline (control) for an additional 3 h.
Plasma samples for determination of [^3H]glucose and [^3H] water specific activities were obtained at 10-min intervals during the basal and clamp periods. Steady state conditions for the plasma glucose concentration and specific activity were achieved within 90 min in all the studies. Plasma samples for determination of plasma IGF-1 (rat and human), IGFBP-3 (human IGFBP-3), GH, insulin, leptin, and FFA concentrations were collected at 30-min intervals throughout the study. All determinations were also performed on portal vein blood obtained at the end of the experiments. The total amount of blood drawn during the entire study for various assays is ˜3 cc. After separation of plasma (subsequently used for analysis), the red blood cells were reconstituted in saline and infused back into the animal.
Plasma glucose (sample volume 10 μl) was measured by the glucose oxidase method (Glucose Analyzer II, Beckman Instruments, Palo Alto, Calif.). Plasma [^3H]glucose radioactivity was measured in duplicates in the supernatants of Ba(OH)2 and ZnSO4 precipitates of plasma samples (20 μl) after evaporation to dryness to eliminate tritiated water. […] Plasma insulin (10 μl) was measured by RIA using rat insulin standard for basal studies and human insulin standard for insulin clamp studies. […] Plasma non-esterified fatty acid concentrations (5 μl) were determined by an enzymatic method with an automated kit according to the manufacturer's specification (Waco Pure Chemical Industries, Osaka, Japan). Rat IGF-1 (50 μl) was measured with a rIGF-1 ELISA kit (DSL, Webster, Tex.). Human IGF-1 (50 μl) was measured with an in-house kit developed in UCLA using a double monoclonal antibody ELISA with sensitivity of 0.1 ng/ml and an intra-assay and inter-assay coefficient of variations which are <6% and <8%, respectively, in the range from 1 to 6 ng/ml. Human IGFBP-3 (30 μl) was measured with an ELISA kit (DSL, Webster, Tex.). This kit reads both IGFBP-3 and NLS IGFBP-3. […] Serum levels of rat growth hormone were determined using an enzyme immunoassay (EIA) kit (ALPCO, Windham, N.H.) according to the manufacturer's instructions. […]
Under steady-state conditions for plasma glucose concentrations, the rate of glucose disappearance (Rd) equals the rate of glucose appearance (Ra). The latter was calculated as the ratio of the rate of infusion of [3-^3H]glucose (dpm/min) and the steady-state plasma [^3H]glucose specific activity (dpm/mg). […]

Setting [1] is: 0.06 mg/kg/hr IV, hyperinsulinemic clamp.

Consider “IGFBP-3: non glycosylated hIGFBP-3 (IGF binding protein-3), provided by Celtrix”, for which the “human IGFBP-3 levels during the IGFBP-3 infusion” value (0.06 mg/kg/hr IV for 3 h) stood at 1960 ± 360 ng/mL. For the same substance, under setting [1], the “higher HGP compared to controls” value is listed as 30% and the “reduction in insulin stimulated glucose uptake compared to controls” value is approximately 17%. For the same substance, the “level in rat CSF after peripheral infusion, mean” value (peripherally infused IGFBP-3) came to 7 ng/mL.
